Measured values published in publication PMC5100589.

B1: AAV P5 dsDNA (dsDNA)
DNA 1: AGGGTCTCCATTTTGAAGCG
DNA 2: CGCTTCAAAATGGAGACCCT

What was measured:
YY1(F1-4) = YY1(F1-4) (human, UniProt P25490 292-414); assay: MST
YY1(mut5) = YY1(mut5) (human, UniProt P25490 292-414, V324A;H325A;V326A;L340A;Q344A); assay: MST
YY1(F1-4) R323A = YY1(F1-4) R323A (human, UniProt P25490 292-414, R323A); assay: EMSA
YY1(F1-4) Q344A = YY1(F1-4) Q344A (human, UniProt P25490 292-414, Q344A); assay: EMSA
YY1(F1-4) H325A = YY1(F1-4) H325A (human, UniProt P25490 292-414, H325A); assay: EMSA
GST-YY1(F1-4) = GST-YY1(F1-4) (human, UniProt P25490 292-414); assay: competition
GST-YY1(F1-4), sequence (P25490 292-414): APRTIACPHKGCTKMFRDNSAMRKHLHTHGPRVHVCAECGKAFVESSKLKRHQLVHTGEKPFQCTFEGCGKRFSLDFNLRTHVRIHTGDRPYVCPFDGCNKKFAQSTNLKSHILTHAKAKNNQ

YY1(F1-4), sequence (P25490 292-414): as above
YY1(F1-4) R323A, sequence (P25490 292-414 R323A): as the sequence (P25490 292-414) above, with R32A counted along it
YY1(mut5), sequence (P25490 292-414 V324A/H325A/V326A/L340A/Q344A): as the sequence (P25490 292-414) above, with V33A, H34A, V35A, L49A, Q53A counted along it
YY1(F1-4) Q344A, sequence (P25490 292-414 Q344A): as the sequence (P25490 292-414) above, with Q53A counted along it
YY1(F1-4) H325A, sequence (P25490 292-414 H325A): as the sequence (P25490 292-414) above, with H34A counted along it

Row | Binder | Kd (YY1(F1-4)) [µM] | Kd (YY1(mut5)) [µM] | binding result (YY1(F1-4) R323A) | binding result (YY1(F1-4) Q344A) | binding result (YY1(F1-4) H325A) | binding result (GST-YY1(F1-4))
1 | AAAAAAAAAAAAAA (ssRNA) [poly(A) RNA] | 4.2 ± 0.5 |  |  |  |  | 
2 | AGGCGAUGGUGAGC (ssRNA) [m2 RNA] | 3.8 ± 0.6 | 31 ± 9 | binds | binds | binds | 
3 | B1 |  |  |  |  |  | binds
